These are literature values, as cited in US20080279765A1, “Novel Imaging Agents for Fibrosis” (priority 2005, published 2008).

Where two headings read alike, the source gives them in different places.

Data set [1] addresses T1, M6P receptor (Homo sapiens, UniProt P11717). To be noted: pH 7.4; read-out: Kd of binding to the M6P receptor.
For data set [2], the target named is T1, M6P receptor. The note with it: site on M6P receptor distinct from the IGF-II binding site.

T1 sequence (P11717 41-2491): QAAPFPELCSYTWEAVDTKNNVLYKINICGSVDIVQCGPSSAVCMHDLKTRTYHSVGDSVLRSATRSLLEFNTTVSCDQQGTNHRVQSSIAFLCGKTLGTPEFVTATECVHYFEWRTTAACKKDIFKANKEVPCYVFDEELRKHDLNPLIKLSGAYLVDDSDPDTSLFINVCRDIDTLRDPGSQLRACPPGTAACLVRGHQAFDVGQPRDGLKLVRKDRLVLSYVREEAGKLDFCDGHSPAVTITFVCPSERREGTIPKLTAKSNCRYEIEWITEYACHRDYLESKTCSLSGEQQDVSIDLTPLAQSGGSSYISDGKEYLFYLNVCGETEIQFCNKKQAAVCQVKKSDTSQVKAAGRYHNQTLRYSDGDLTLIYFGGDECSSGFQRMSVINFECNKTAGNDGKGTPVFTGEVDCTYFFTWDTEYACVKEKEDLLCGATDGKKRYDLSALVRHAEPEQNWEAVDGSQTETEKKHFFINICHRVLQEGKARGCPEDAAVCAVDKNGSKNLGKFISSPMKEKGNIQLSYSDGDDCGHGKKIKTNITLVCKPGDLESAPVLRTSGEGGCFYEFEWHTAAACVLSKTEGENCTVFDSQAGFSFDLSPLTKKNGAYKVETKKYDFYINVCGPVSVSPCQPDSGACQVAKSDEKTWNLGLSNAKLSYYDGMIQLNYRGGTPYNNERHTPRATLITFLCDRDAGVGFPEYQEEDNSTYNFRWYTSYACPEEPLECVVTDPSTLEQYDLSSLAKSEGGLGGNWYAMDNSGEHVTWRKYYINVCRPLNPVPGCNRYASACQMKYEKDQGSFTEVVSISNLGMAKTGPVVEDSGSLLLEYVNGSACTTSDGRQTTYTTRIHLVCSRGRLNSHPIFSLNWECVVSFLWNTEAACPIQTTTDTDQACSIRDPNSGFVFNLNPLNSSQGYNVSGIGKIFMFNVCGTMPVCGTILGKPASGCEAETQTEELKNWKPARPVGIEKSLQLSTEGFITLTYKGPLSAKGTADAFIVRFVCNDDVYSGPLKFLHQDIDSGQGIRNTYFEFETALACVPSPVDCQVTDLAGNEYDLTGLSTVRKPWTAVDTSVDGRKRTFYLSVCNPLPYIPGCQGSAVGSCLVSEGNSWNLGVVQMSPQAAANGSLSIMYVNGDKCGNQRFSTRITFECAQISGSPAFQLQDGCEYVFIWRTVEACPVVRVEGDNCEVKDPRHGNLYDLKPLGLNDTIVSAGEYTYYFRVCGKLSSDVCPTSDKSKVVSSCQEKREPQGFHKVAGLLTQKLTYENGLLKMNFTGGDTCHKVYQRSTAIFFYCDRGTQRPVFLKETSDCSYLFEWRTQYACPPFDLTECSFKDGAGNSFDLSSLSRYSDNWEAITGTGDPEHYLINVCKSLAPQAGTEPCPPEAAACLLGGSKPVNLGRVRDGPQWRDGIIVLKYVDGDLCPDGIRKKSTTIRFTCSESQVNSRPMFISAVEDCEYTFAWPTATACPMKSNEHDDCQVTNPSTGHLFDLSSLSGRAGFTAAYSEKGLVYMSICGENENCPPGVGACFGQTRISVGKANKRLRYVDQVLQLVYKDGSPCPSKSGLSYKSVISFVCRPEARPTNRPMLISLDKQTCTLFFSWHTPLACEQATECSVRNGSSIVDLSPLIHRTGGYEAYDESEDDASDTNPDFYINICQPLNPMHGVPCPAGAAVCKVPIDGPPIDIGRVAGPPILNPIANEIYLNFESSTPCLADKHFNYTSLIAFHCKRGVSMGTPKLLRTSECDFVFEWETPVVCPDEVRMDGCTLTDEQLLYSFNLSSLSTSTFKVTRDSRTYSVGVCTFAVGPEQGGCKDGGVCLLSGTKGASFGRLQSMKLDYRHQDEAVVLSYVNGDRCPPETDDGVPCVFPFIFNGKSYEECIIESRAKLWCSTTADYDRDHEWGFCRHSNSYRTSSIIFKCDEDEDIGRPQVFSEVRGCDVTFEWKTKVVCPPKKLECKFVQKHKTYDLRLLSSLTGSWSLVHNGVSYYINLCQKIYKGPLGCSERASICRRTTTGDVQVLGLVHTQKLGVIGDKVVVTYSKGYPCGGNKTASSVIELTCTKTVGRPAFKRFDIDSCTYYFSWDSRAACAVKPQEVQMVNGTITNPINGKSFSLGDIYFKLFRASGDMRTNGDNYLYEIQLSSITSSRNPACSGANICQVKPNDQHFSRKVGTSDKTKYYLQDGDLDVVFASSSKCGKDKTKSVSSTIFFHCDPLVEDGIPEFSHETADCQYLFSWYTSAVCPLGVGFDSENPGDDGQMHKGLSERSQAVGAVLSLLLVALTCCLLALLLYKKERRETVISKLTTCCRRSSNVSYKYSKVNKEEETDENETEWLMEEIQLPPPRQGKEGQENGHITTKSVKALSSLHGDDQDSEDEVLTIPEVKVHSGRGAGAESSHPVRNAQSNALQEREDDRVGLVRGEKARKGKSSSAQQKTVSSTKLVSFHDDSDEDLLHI

With “IGF-II: non-glycosylated single chain of 67 amino acid residues, SEQ ID NO. 1”, in the data set with M6P receptor [1], the dissociation constant (Kd) is 0.3 to 14 nM.
retinoic acid: at M6P receptor [2], the Kd is 2.4 nM.

In general, Kd refers to the equilibrium constant for the complex coming apart.
